Measured values reported in US20110091994A1, “Methods for Screening Compounds for Treating and/or Preventing an Hepatitis C Virus Infection” (priority 2008, published 2011).

B1: MAGED1 (protein, UniProt Q9Y5V3 1-778, looked up)
Melanoma-associated antigen D1: MAQKMDCGAGLLGFQAEASVEDSALLMQTLMEAIQISEAPPTNQATAAASPQSSQPPTANEMADIQVSAAAARPKSAFKVQNATTKGPNGVYDFSQAHNAKDVPNTQPKAAFKSQNATPKGPNAAYDFSQAATTGELAANKSEMAFKAQNATTKVGPNATYNFSQSLNANDLANSRPKTPFKAWNDTTKAPTADTQTQNVNQAKMATSQADIETDPGISEPDGATAQTSADGSQAQNLESRTIIRGKRTRKINNLNVEENSSGDQRRAPLAAGTWRSAPVPVTTQNPPGAPPNVLWQTPLAWQNPSGWQNQTARQTPPARQSPPARQTPPAWQNPVAWQNPVIWPNPVIWQNPVIWPNPIVWPGPVVWPNPLAWQNPPGWQTPPGWQTPPGWQGPPDWQGPPDWPLPPDWPLPPDWPLPTDWPLPPDWIPADWPIPPDWQNLRPSPNLRPSPNSRASQNPGAAQPRDVALLQERANKLVKYLMLKDYTKVPIKRSEMLRDIIREYTDVYPEIIERACFVLEKKFGIQLKEIDKEEHLYILISTPESLAGILGTTKDTPKLGLLLVILGVIFMNGNRASEAVLWEALRKMGLRPGVRHPLLGDLRKLLTYEFVKQKYLDYRRVPNSNPPEYEFLWGLRSYHETSKMKVLRFIAEVQKRDPRDWTAQFMEAADEALDALDAAAAEAEARAEARTRMGIGDEAVSGPWSWDDIEFELLTWDEEGDFGDPWSRIPFTFWARYHQNARSRFPQTFAGPIIGPGGTASANFAANFGAIGFFWVE
B2: LPXN (protein, UniProt O60711 1-386, looked up)
Leupaxin: MEELDALLEELERSTLQDSDEYSNPAPLPLDQHSRKETNLDETSEILSIQDNTSPLPAQLVYTTNIQELNVYSEAQEPKESPPPSKTSAAAQLDELMAHLTEMQAKVAVRADAGKKHLPDKQDHKASLDSMLGGLEQELQDLGIATVPKGHCASCQKPIAGKVIHALGQSWHPEHFVCTHCKEEIGSSPFFERSGLAYCPNDYHQLFSPRCAYCAAPILDKVLTAMNQTWHPEHFFCSHCGEVFGAEGFHEKDKKPYCRKDFLAMFSPKCGGCNRPVLENYLSAMDTVWHPECFVCGDCFTSFSTGSFFELDGRPFCELHYHHRRGTLCHGCGQPITGRCISAMGYKFHPEHFVCAFCLTQLSKGIFREQNDKTYCQPCFNKLFPL
B3: LRRTM1 (protein, UniProt Q86UE6 35-522, looked up)
Leucine-rich repeat …: APSGCPQLCRCEGRLLYCEALNLTEAPHNLSGLLGLSLRYNSLSELRAGQFTGLMQLTWLYLDHNHICSVQGDAFQKLRRVKELTLSSNQITQLPNTTFRPMPNLRSVDLSYNKLQALAPDLFHGLRKLTTLHMRANAIQFVPVRIFQDCRSLKFLDIGYNQLKSLARNSFAGLFKLTELHLEHNDLVKVNFAHFPRLISLHSLCLRRNKVAIVVSSLDWVWNLEKMDLSGNEIEYMEPHVFETVPHLQSLQLDSNRLTYIEPRILNSWKSLTSITLAGNLWDCGRNVCALASWLNNFQGRYDGNLQCASPEYAQGEDVLDAVYAFHLCEDGAEPTSGHLLSAVTNRSDLGPPASSATTLADGGEGQHDGTFEPATVALPGGEHAENAVQIHKVVTGTMALIFSFLIVVLVLYVSWKCFPASLRQLRQCFVTQRRKQKQKQTMHQMAAMSAQEYYVDYKPNHIEGALVIINEYGSCTCHQQPARECEV
B4: LRRCC1 (protein, UniProt Q9C099 1-1032, looked up)
Leucine-rich repeat and …: MEAAAAVVAAEAEVENEDGDSSCGDVCFMDKGLQSISELSLDSTLHAVNLHCNNISKIEAIDHIWNLQHLDLSSNQISRIEGLNTLTKLCTLNLSCNLITKVEGLEELINLTRLNVSYNHIDDLSGLIPLHGIKHKLRYIDLHSNRIDSIHHLLQCMVGLHFLTNLILEKDGDDNPVCRLPGYRAVILQTLPQLRILDCKNIFGEPVNLTEINSSQLQCLEGLLDNLVSSDSPLNISEDEIIDRMPVITAPIDELVPLEQFASTPSDAVLTSFMSVCQSSEPEKNNHENDLQNEIKLQKLDDQILQLLNETSNSIDNVLEKDPRPKRDTDITSESDYGNRKECNRKVPRRSKIPYDAKTIQTIKHHNKNYNSFVSCNRKMKPPYLKELYVSSSLANCPMLQESEKPKTEIIKVDQSHSEDNTYQSLVEQLDQEREKRWRAEQAENKLMDYIDELHKHANEKEDIHSLALLTTDRLKEIIFRERNSKGQLEVMVHKLQNEIKKLTVELMKAKDQQEDHLKHLRTLEKTLEKMERQKRQQQAAQIRLIQEVELKASAADREIYLLRTSLHREREQAQQLHQLLALKEQEHRKELETREFFTDADFQDALAKEIAKEEKKHEQMIKEYQEKIDVLSQQYMDLENEFRIALTVEARRFQDVKDGFENVATELAKSKHALIWAQRKENESSSLIKDLTCMVKEQKTKLAEVSKLKQETAANLQNQINTLEILIEDDKQKSIQIELLKHEKVQLISELAAKESLIFGLRTERKVWGHELAQQGSSLAQNRGKLEAQIESLSRENECLRKTNESDSDALRIKCKIIDDQTETIRKLKDCLQEKDEHIKRLQEKITEIEKCTQEQLDEKSSQLDEVLEKLERHNERKEKLKQQLKGKEVELEEIRKAYSTLNRKWHDKGELLCHLETQVKEVKEKFENKEKKLKAERDKSIELQKNAMEKLHSMDDAFKRQVDAIVEAHQAEIAQLANEKQKCIDSANLKVHQIEKEMRELLEETCKNKKTMEAKIKQLAFALNEIQQDM
B5: LDB1 (protein, UniProt Q86U70 2-411, looked up)
LIM domain-binding protein 1: SVGCACPGCSSKSFKLYSPKEPPNGNAFPPFHPGTMLDRDVGPTPMYPPTYLEPGIGRHTPYGNQTDYRIFELNKRLQNWTEECDNLWWDAFTTEFFEDDAMLTITFCLEDGPKRYTIGRTLIPRYFRSIFEGGATELYYVLKHPKEAFHSNFVSLDCDQGSMVTQHGKPMFTQVCVEGRLYLEFMFDDMMRIKTWHFSIRQHRELIPRSILAMHAQDPQMLDQLSKNITRCGLSNSTLNYLRLCVILEPMQELMSRHKTYSLSPRDCLKTCLFQKWQRMVAPPAEPTRQQPSKRRKRKMSGGSTMSSGGGNTNNSNSKKKSPASTFALSSQVPDVMVVGEPTLMGGEFGDEDERLITRLENTQFDAANGIDDEDSFNNSPALGANSPWNSKPPSSQESKSENPTSQASQ
B6: MLXIP (protein, UniProt Q9HAP2 2-919, looked up)
MLX-interacting protein: AADVFMCSPRRPRSRGRQVLLKPQVSEDDDDSDTDEPSPPPASGAATPARAHASAAPPPPRAGPGREEPPRRQQIIHSGHFMVSSPHREHPPKKGYDFDTVNKQTCQTYSFGKTSSCHLSIDASLTKLFECMTLAYSGKLVSPKWKNFKGLKLQWRDKIRLNNAIWRAWYMQYLEKRKNPVCHFVTPLDGSVDVDEHRRPEAITTEGKYWKSRIEIVIREYHKWRTYFKKRLQQHKDEDLSSLVQDDDMLYWHKHGDGWKTPVPMEEDPLLDTDMLMSEFSDTLFSTLSSHQPVAWPNPREIAHLGNADMIQPGLIPLQPNLDFMDTFEPFQDLFSSSRSIFGSMLPASASAPVPDPNNPPAQESILPTTALPTVSLPDSLIAPPTAPSLAHMDEQGCEHTSRTEDPFIQPTDFGPSEPPLSVPQPFLPVFTMPLLSPSPAPPPISPVLPLVPPPATALNPPAPPTFHQPQKFAGVNKAPSVITHTASATLTHDAPATTFSQSQGLVITTHHPAPSAAPCGLALSPVTRPPQPRLTFVHPKPVSLTGGRPKQPHKIVPAPKPEPVSLVLKNARIAPAAFSGQPQAVIMTSGPLKREGMLASTVSQSNVVIAPAAIARAPGVPEFHSSILVTDLGHGTSSPPAPVSRLFPSTAQDPLGKGEQVPLHGGSPQVTVTGPSRDCPNSGQASPCASEQSPSPQSPQNNCSGKSDPKNVAALKNRQMKHISAEQKRRFNIKMCFDMLNSLISNNSKLTSHAITLQKTVEYITKLQQERGQMQEEARRLREEIEELNATIISCQQLLPATGVPVTRRQFDHMKDMFDEYVKTRTLQNWKFWIFSIIIKPLFESFKGMVSTSSLEELHRTALSWLDQHCSLPILRPMVLSTLRQLSTSTSILTDPAQLPEQASKAVTRIGKRLGES
B7: LZTS2 (protein, UniProt Q9BRK4 1-669, looked up)
Leucine zipper putative tumor …: MAIVQTLPVPLEPAPEAATAPQAPVMGSVSSLISGRPCPGGPAPPRHHGPPGPTFFRQQDGLLRGGYEAQEPLCPAVPPRKAVPVTSFTYINEDFRTESPPSPSSDVEDAREQRAHNAHLRGPPPKLIPVSGKLEKNMEKILIRPTAFKPVLPKPRGAPSLPSFMGPRATGLSGSQGSLTQLFGGPASSSSSSSSSSAADKPLAFSGWASGCPSGTLSDSGRNSLSSLPTYSTGGAEPTTSSPGGHLPSHGSGRGALPGPARGVPTGPSHSDSGRSSSSKSTGSLGGRVAGGLLGSGTRASPDSSSCGERSPPPPPPPPSDEALLHCVLEGKLRDREAELQQLRDSLDENEATMCQAYEERQRHWQREREALREDCAAQAQRAQRAQQLLQLQVFQLQQEKRQLQDDFAQLLQEREQLERRCATLEREQRELGPRLEETKWEVCQKSGEISLLKQQLKESQAELVQKGSELVALRVALREARATLRVSEGRARGLQEAARARELELEACSQELQRHRQEAEQLREKAGQLDAEAAGLREPPVPPATADPFLLAESDEAKVQRAAAGVGGSLRAQVERLRVELQRERRRGEEQRDSFEGERLAWQAEKEQVIRYQKQLQHNYIQMYRRNRQLEQELQQLSLELEARELADLGLAEQAPCICLEEITATEI

Molecular target: T1, HCV ORFs (Gal4-DB fusions) (Hepatitis C virus genotype 1b, UniProt Q9WMX2)
T1 construct: expressed in transfected cells; host or cells: Saccharomyces cerevisiae MAV203 (IMAP1) / AH109 (IMAP2)
Experiment: not given
Format: binding, HCV genotype 1b, isolate con1
Settings: HCV protein CORE as bait; human protein as prey
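For IMAP Y2H IMAP1 (number of IST) in this document: yeast two-hybrid screens using HCV genotype 1b proteins fused to Gal4-DB as baits against prey cDNA libraries from human spleen and foetal brain, IMAP1 via transformation and IMAP2 via mating.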
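For IMAP Y2H IMAP2 (number of IST) in this document: yeast two-hybrid screens using HCV genotype 1b proteins fused to Gal4-DB as baits against prey cDNA libraries from human spleen and foetal brain, IMAP1 via transformation and IMAP2 via mating.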
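For Interaction with viral protein in this document: yeast two-hybrid screens using HCV genotype 1b proteins fused to Gal4-DB as baits against prey cDNA libraries from human spleen and foetal brain, IMAP1 via transformation and IMAP2 via mating.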

Row | Molecule | IMAP Y2H IMAP1 (number of IST) | IMAP Y2H IMAP2 (number of IST)
1 | B1 | 1 | 2
2 | B2 | 1 | 
3 | B3 | 1 | 

Same assay, conditions: HCV protein NS3 as bait; human protein as prey

Row | Molecule | IMAP Y2H IMAP1 (number of IST)
4 | B4 | 1
5 | B5 | 1
6 | B6 | 1
7 | B1 | 1
8 | B7 | 8

Test system: HCV ORFs (Gal4-DB fusions)
Experiment: not given
Format: binding, HCV genotype 1b, isolate con1
Settings: human protein listed by gene symbol; the value names the HCV protein it interacts with

Row | Molecule | Interaction with viral protein
9 | B4 | NS3
10 | B5 | NS3
11 | B6 | NS3
12 | B1 | NS3 and CORE
13 | B7 | NS3
14 | B2 | CORE
15 | B3 | CORE

Molecular target: T2, HCV proteins (Hepatitis C virus genotype 1b, UniProt Q9WMX2)
T2 construct: expressed in transfected cells
Experiment: Validation by Y2H pairwise matrices;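 also: yeast two-hybrid pairwise tests of interactions first found in Y2H screens of HCV bait proteins against human cDNA libraries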
Format: binding
Settings: validation of interaction with HCV protein CORE

Row | Molecule | Y2H matrices
16 | B1 | +
17 | B2 | +
18 | B3 | +

Same assay, conditions: validation of interaction with HCV protein NS3

Row | Molecule | Y2H matrices
19 | B4 | +
20 | B5 | +
21 | B6 | +
22 | B1 | +
23 | B7 | +
